Test results from patent publication US7238778B2, “Crystallized glucocorticoid receptor ligand binding domain polypeptide and screening methods employing same” (SmithKline Beecham Corporation, priority 2001, dated 2007).

Key:
[1] = target: T1, GST-GR LBD 521–777 (F602S) (Homo sapiens, UniProt P04150, F602S); assay: Stability of GR dexamethasone binding activity over time by fluorescence polarization; conditions: 25 uM peptide, 1 μM GST-GR LBD, 10 nM fluorescein dexamethasone (FIG. 2C)
T1 construct: GR-LBD(521–777) F602S; made in house; host or cells: E. coli BL21(DE3)
T1 sequence (P04150 521-777 F602S): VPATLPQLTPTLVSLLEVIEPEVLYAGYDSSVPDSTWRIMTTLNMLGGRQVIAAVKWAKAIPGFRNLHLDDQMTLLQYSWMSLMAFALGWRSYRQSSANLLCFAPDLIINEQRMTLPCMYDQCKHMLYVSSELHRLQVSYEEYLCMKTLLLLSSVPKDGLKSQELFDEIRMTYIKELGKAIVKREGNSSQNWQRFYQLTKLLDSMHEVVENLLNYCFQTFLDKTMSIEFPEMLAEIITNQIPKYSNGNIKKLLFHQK
Experimental: FIG. 2C is a graph depicting that TIF2 coactivator peptide enhances stability of GR dexamethasone binding activity. The effect of 25 uM coactivator peptide TIF2 732–756 (diamonds) or no peptide (squares) on the binding of GST-GR LBD (F602S) 521–777 to 10 nM fluorescein dexamethasone with time is determined by fluorescence polarization.

[2] = target: T2, GST-GR LBD (F602S) 521–777 (Homo sapiens, UniProt P04150, F602S); assay: Surface plasmon resonance (Biacore) binding of GST-GR LBD to immobilized TIF2 LXXLL peptide
T2 construct: GR-LBD(521–777) F602S; made in house; host or cells: E. coli BL21(DE3); TIF2 peptide made by chemical synthesis
T2 sequence (P04150 521-777 F602S): T1 sequence (P04150 521-777 F602S)
Experimental: Each point is the average of two determinations.
FIG. 2B was generated using Biacore techniques. Biacore relies on changes in the refractive index at the surface layer upon binding of a ligand to a protein immobilized on the layer. In this system, a collection of small ligands is injected sequentially in a 2–5 microliter cell, wherein the protein is immobilized within the cell. Binding is detected by surface plasmon resonance (SPR) by recording laser light refracting from the surface. […] The purified protein is then used in the assay without further preparation. A synthetic peptide with an amino-terminal biotin is coupled to a sensor chip immobilized with streptavidin. The chip thus prepared is then exposed to the potential ligand via the delivery system incorporated in the instruments sold by Biacore (Uppsala, Sweden) to pipet the ligands in a sequential manner (autosampler). The SPR signal on the chip is recorded and changes in the refractive index indicate an interaction between the immobilized target and the ligand. Analysis of the signal kinetics of on rate and off rate allows the discrimination between non-specific and specific interaction.

[3] = target: GR LBD (F602S) 521–777 (Homo sapiens, UniProt P04150, F602S); conditions: GST-GR fusion protein and cleaved GR LBD alone; 10 nM fluorescein dexamethasone, competed with 100 uM unlabeled dexamethasone (FIG. 2A)
Chain of GR LBD (F602S) 521–777 (P04150 with tags, fused parts or gaps F602S): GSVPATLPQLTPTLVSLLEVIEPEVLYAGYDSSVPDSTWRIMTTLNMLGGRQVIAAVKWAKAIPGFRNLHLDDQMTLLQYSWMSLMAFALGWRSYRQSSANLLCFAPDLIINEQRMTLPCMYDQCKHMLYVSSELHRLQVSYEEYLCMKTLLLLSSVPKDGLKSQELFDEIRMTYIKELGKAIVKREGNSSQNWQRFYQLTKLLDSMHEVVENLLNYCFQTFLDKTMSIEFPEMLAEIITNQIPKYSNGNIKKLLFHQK
Experimental: FIG. 2A is a graph depicting the binding of 10 nM fluorescein dexamethasone to varied concentrations of GST-GR LBD (F602S) 521–777 (circles), GR LBD (F602S) 521–777 (triangles) and GR LBD (F602S) 521–777 in the presence of 100 uM unlabeled dexamethasone (squares) as measured by fluorescence polarization.
All experiments were conducted with buffer containing 10 mM HEPES pH 7.4, 0.15 M NaCl, 3 mM EDTA, 0.005% polysorbate-20 and 5 mM DTT. For activity determinations, 10 nM of fluorescein dexamethasone (Molecular Probes, Eugene, Ore.) was titrated with increasing concentrations of the glucocorticoid receptor in black 96-well plates (CoStar, Cambridge, Mass.). The fluorescence polarization values for each concentration of receptor were determined using a BMG PolarStar Galaxy fluorescence plate reader (BMG Labtechnologies GmbH, Offenburg, Germany) with 485 nm excitation and 520 nm emission filters. Binding isotherms were constructed and apparent EC50 values were determined by non-linear least squares fit of the data to an equation for a simple 1:1 interaction. […] For stability studies, the fluorescent polarization of 10 nM fluorescein dexamethasone with 1 μM GST-GR LBD 521–777 (F602S) is read at specific time intervals in the presence or absence of 25 uM of a peptide derived from the coactivator TIF2.

effect on the dexamethasone binding activity of the GST-GR fusion protein with time [1]	affinity of the TIF2 coactivator peptide for the GST-GR fusion protein ([2]; immobilized TIF2 732–756 peptide (FIG. 2B))	Substance	binding of dexamethasone to GR [3]	effect of ligand on binding of the GST-GR fusion protein to the TIF2 peptide ([2]; five-fold excess of compound over GST-GR LBD (F602S) (FIG. 2B))
stabilizes	submicromolar	QEPVSPKKKENALLRYLLDKDDTKD [TIF2 peptide]	–	–
–	–	(11β, 16α)-9-fluoro-11β,17,21-trihydroxy-16α-methylpregna-1-4-diene-3,20-dione [dexamethasone]	saturable and competable	enhanced
